Source: US11278600B2, “Human alpha-galactosidase variants” (Codexis, Inc., priority 2014, dated 2022)

B1: 233 (protein)
chain: LDNGLARTPTMGWLHWERFMCNLDCQEEPDSCISEKLFMEMAELMVSEGWKDAGYEYLCIDDCWMAPQRDSEGRLQADPQRFPHGIRQLANYVHSKGLKLGIYADVGNKTCAGFPGSFGYYDIDAQTFADWGVDLLKFDGCYCDSLENLADGYKHMSLALNRTGRSIVYSCEWPLYMWPFQKPNYTEIRQYCNHWRNFADIDDSWASIKSILDWTSRNQERIVDVAGPGGWNDPDMLVIGNFGLSWDQQVTQMALWAIMAAPLFMSNDLRHISPQAKALLQDKDVIAINQDPLGKQGYQLRQGDNFEVWERPLSGDAWAVAMINRQEIGGPRSYTIAVASLGKGVACNPGCFITQLLPVKRKLGFYDWDSRLRSHINPTGTVLLQLENTMQMSLKDLL
modifications: Synthetic Polypeptide sequence of Variant No. 233 of mature Human GLA
B2: 234 (protein)
chain: LDNGLARTPTMGWLHWERFMCNLDCQEEPDSCISEKLFMEMAELMVSEGWKDAGYEYLCIDDCWMAPQRDSEGRLQADPQRFPHGIRQLANYVHSKGLKLGIYADVGNKTCAGFPGSFGYYDIDAQTFADWGVDLLKFDGCYCDSLENLADGYKHMSLALNRTGRSIVYSCEWPLYMWPFQKPNYTEIRQYCNHWRNFADIDDSWASIKSILDWTSRNQERIVDVAGPGGWNDPDMLVIGNFGLSWDQQVTQMALWAIMAAPLFMSNDLRHISPQAKALLQDKDVIAINQDPLGKQGYQLRKGDNFEVWERPLSGLAWAVAMINRQEIGGPRSYTIAVASLGKGVACNPGCFITQLLPVKRKLGFYDWDSRLRSHINPTGTVLLQLENTMQMSLKDLL
modifications: Synthetic Polypeptide sequence of Variant No. 234 of mature Human GLA
B3: 300 (protein)
chain: LDNGLARTPTMGWLHWERFMCNLDCQEEPDSCISEKLFMEMAELMVSEGWKDAGYEYLCIDDCWMAPQRDSEGRLQADPQRFPHGIRQLANYVHSKGLKLGIYADVGNKTCAGFPGSFGYYDIDAQTFADWGVDLLKFDGCYCDSLENLADGYKHMSLALNRTGRSIVYSCEWPLYMWPFQKPNYTEIRQYCNHWRNFADIDDSWASVKSILDWTSFNQETIVDVAGPGGWNDPDMLVIGNFGLSWDQQVTQMALWAIMAAPLFMSNDLRHISPQAKALLQDKDVIAINQDPLGKQGYQLRQGDNFEVWERPLSGLAWAVAVINRQEIGGPRSYTIAVASLGGGVACNPACFITQLLPVKRKLGFYNWTSRLKSHINPTGTVLLQLENTMQMSLKDLL
modifications: Synthetic Polypeptide sequence of Variant No. 300 of mature Human GLA
B4: 236 (protein)
chain: LDNGLARTPTMGWLHWERFMCNLDCQEEPDSCISEKLFMEMAELMVSEGWKDAGYEYLCIDDCWMAPQRDSEGRLQADPQRFPHGIRQLANYVHSKGLKLGIYADVGNKTCAGFPGSFGYYDIDAQTFADWGVDLLKFDGCYCDSLENLADGYKHMSLALNRTGRSIVYSCEWPLYMWPFQKPNYTEIRQYCNHWRNFADIDDSWASIKSILDWTSRNQERIVDVAGPGGWNDPDMLVIGNFGLSWNQQVTQMALWAIMAAPLFMSNDLRHISPQAKALLQDKDVIAINQDPLGKQGYQLRKGDNFEVWERPLSGLAWAVAMINRQEIGGPRSYTIAVASLGKGVACNPACFITQLLPVKRKLGFYDWDSRLRSHINPTGTVLLQLENTMQMSLKDLL
modifications: Synthetic Polypeptide sequence of Variant No. 236 of mature Human GLA
B5: 235 (protein)
chain: LDNGLARTPTMGWLHWERFMCNLDCQEEPDSCISEKLFMEMAELMVSEGWKDAGYEYLCIDDCWMAPQRDSEGRLQADPQRFPHGIRQLANYVHSKGLKLGIYADVGNKTCAGFPGSFGYYDIDAQTFADWGVDLLKFDGCYCDSLENLADGYKHMSLALNRTGRSIVYSCEWPLYMWPFQKPNYTEIRQYCNHWRNFADIDDSWASIKSILDWTSRNQERIVDVAGPGGWNDPDMLVIGNFGLSWDQQVTQMALWAIMAAPLFMSNDLRHISPQAKALLQDKDVIAINQDPLGKQGYQLRKGDNFEVWERPLSGDAWAVAMINRQEIGGPRSYTIPVASLGKGVACNPGCFITQLLPVKRKLGFYDWDSRLRSHINPTGTVLLQLENTMQMSLKDLL
modifications: Synthetic Polypeptide sequence of Variant No. 235 of mature Human GLA
B6: 301 (protein)
chain: LDNGLARTPTMGWLHWERFMCNLDCQEEPDSCISEKLFMEMAELMVSEGWKDAGYEYLCIDDCWMAPQRDSEGRLQADPQRFPHGIRQLANYVHSKGLKLGIYADVGNKTCAGFPGSFGYYDIDAQTFADWGVDLLKFDGCYCDSLENLADGYKHMSLALNRTGRSIVYSCEWPLYMWPFQKPNYTEIRQYCNHWRNFADIDDSWASIKSILDWTSFNQERIVDVAGPGGWNDPDMLVIGNFGLSWNQQVTQMALWAIMAAPLFMSNDLRHISPQAKALLQDKDVIAINQDPLGKQGYQLRQGDNFEVWERPLSGLAWAVAIINRQEIGGPRSYTIAVASLGKGVACNPACFITQLLPVKRKLGFYNWTSRLKSHINPTGTVLLQLENTMQMSLKDLL
modifications: Synthetic Polypeptide sequence of Variant No. 301 of mature Human GLA
B7: 302 (protein)
chain: LDNGLARTPTMGWLHWERFMCNLDCQEEPDSCISEKLFMEMAELMVSEGWKDAGYEYLCIDDCWMAPQRDSEGRLQADPQRFPHGIRQLANYVHSKGLKLGIYADVGNKTCAGFPGSFGYYDIDAQTFADWGVDLLKFDGCYCDSLENLADGYKHMSLALNRTGRSIVYSCEWPLYMWPFQKPNYTEIRQYCNHWRNFADIDDSWASIKSILDWTSFNQERIVDVAGPGGWNDPDMLVIGNFGLSWNQQVTQMALWAIMAAPLFMSNDLRHISPQAKALLQDKDVIAINQDPLGKQGYQLRQGDNFEVWERPLSGLAWAVAVINRQEIGGPRSYTIAVASLGGGVACNPACFITQLLPVKRKLGFYNWTSRLKSHINPTGTVLLQLENTMQMSLKDLL
modifications: Synthetic Polypeptide sequence of Variant No. 302 of mature Human GLA

How the values were obtained:
Assay type in all cases: biochemical
[1] = HTP-analysis of supernatants pretreated with acid (MUGal hydrolysis); conditions: yeast culture supernatant; for Relative Activity of GLA Variants After Challenge at pH 4.2: activity of the variant/activity of Rd2BB (SEQ ID NO: 10); for Relative Activity of GLA Variants After Challenge at pH 4.0: activity of the variant/activity of Rd3BB (SEQ ID NO: 13)
Summary of the method: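 Fluorescence of MUGal hydrolysis (Ex. 355 nm, Em. 448 nm) is read after sodium carbonate quench. The enzyme source is INVSc1 yeast culture supernatant, first exposed to pH 3.3-4.3 McIlvaine buffer at 37° C. for 1-3 h, then reacted at pH 4.8 for 30-180 minutes.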

[2] = HTP-analysis of supernatants pretreated with bovine serum (MUGal hydrolysis); conditions: yeast culture supernatant
Summary of the method: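 Yeast INVSc1 culture supernatants containing secreted GLA variants were mixed with bovine serum (20:80) and held 1 h at 37° C. Serum-treated samples then reacted with MUGal (4 mM stock) in citrate/McIlvaine buffer (pH 4.3/4.8) for 180 min at 37° C., were quenched with sodium carbonate, and read by fluorescence (Ex 355, Em 448 nm).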

[3] = HTP-analysis of yeast culture supernatants, no challenge (MUGal hydrolysis); conditions: yeast culture supernatant
Summary of the method: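 GLA variants were expressed in INVSc1 yeast grown in SD-Ura broth with glucose at 30° C., and culture supernatants were collected after 66-84 h. Supernatant was mixed with McIlvaine buffer pH 4.8 and MUGal (2 mM stock) in 50 mM citrate, 200 mM KCl, pH 4.6, incubated at 37° C. for 30-180 minutes, then quenched with sodium carbonate.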

[4] = HTP-analysis of supernatants pretreated with base (MUGal hydrolysis); conditions: yeast culture supernatant; for Relative Activity of GLA Variants After Challenge at pH 7.6: activity of the variant/activity of Rd2BB (SEQ ID NO: 10); for Relative Activity of GLA Variants After Challenge at pH 8.2: activity of the variant/activity of Rd3BB (SEQ ID NO: 13)
Summary of the method: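 GLA variants were secreted by transformed INVSc1 yeast grown 66-84 h at 30° C. Supernatants were exposed to neutral-to-basic buffers (pH 7.0-9.7) at 37° C for 1-18 h, then assayed with MUGal in acidic citrate/McIlvaine buffer, with fluorescence read after quenching.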

[5] = activity of the variant/activity of Rd2BB (SEQ ID NO: 10)
[6] = activity of the variant/activity of Rd3BB (SEQ ID NO: 13)

Molecule | Relative Activity of GLA Variants After Challenge at pH 4.2 [1] | Relative Activity of GLA Variants After Challenge with Serum [2, 5] | Relative Activity of GLA Variants After No Challenge (NC) [3, 5] | Relative Activity of GLA Variants After Challenge at pH 7.6 [4] | Relative Activity of GLA Variants After Challenge at pH 4.0 [1] | Relative Activity of GLA Variants After Challenge with Serum [2, 6] | Relative Activity of GLA Variants After No Challenge (NC) [3, 6] | Relative Activity of GLA Variants After Challenge at pH 8.2 [4]
B1 | +++ (+++ = >2.5 relative activity over Rd2BB (SEQ ID NO: 10)) | +++ (+++ = >2.5 relative activity over Rd2BB (SEQ ID NO: 10)) | +++ (+++ = >2.5 relative activity over Rd2BB (SEQ ID NO: 10)) | +++ (+++ = >2.5 relative activity over Rd2BB (SEQ ID NO: 10)) | – | – | – | –
B2 | +++ (+++ = >2.5 relative activity over Rd2BB (SEQ ID NO: 10)) | +++ (+++ = >2.5 relative activity over Rd2BB (SEQ ID NO: 10)) | +++ (+++ = >2.5 relative activity over Rd2BB (SEQ ID NO: 10)) | +++ (+++ = >2.5 relative activity over Rd2BB (SEQ ID NO: 10)) | – | – | – | –
B3 | – | – | – | – | ++ (++ = >1.5 to 2.5 relative activity over Rd3BB (SEQ ID NO: 13)) | ++ (++ = >1.5 to 2.5 relative activity over Rd3BB (SEQ ID NO: 13)) | + (+ = 0.5 to 1.5 relative activity over Rd3BB (SEQ ID NO: 13)) | ++ (++ = >1.5 to 2.5 relative activity over Rd3BB (SEQ ID NO: 13))
B4 | ++ (++ = 1.5 to 2.5 relative activity over Rd2BB (SEQ ID NO: 10)) | ++ (++ = 1.5 to 2.5 relative activity over Rd2BB (SEQ ID NO: 10)) | +++ (+++ = >2.5 relative activity over Rd2BB (SEQ ID NO: 10)) | +++ (+++ = >2.5 relative activity over Rd2BB (SEQ ID NO: 10)) | – | – | – | –
B5 | +++ (+++ = >2.5 relative activity over Rd2BB (SEQ ID NO: 10)) | +++ (+++ = >2.5 relative activity over Rd2BB (SEQ ID NO: 10)) | +++ (+++ = >2.5 relative activity over Rd2BB (SEQ ID NO: 10)) | +++ (+++ = >2.5 relative activity over Rd2BB (SEQ ID NO: 10)) | – | – | – | –
B6 | – | – | – | – | + (+ = 0.5 to 1.5 relative activity over Rd3BB (SEQ ID NO: 13)) | − (− = <0.5 relative activity to Rd3BB (SEQ ID NO: 13)) | + (+ = 0.5 to 1.5 relative activity over Rd3BB (SEQ ID NO: 13)) | + (+ = 0.5 to 1.5 relative activity over Rd3BB (SEQ ID NO: 13))
B7 | – | – | – | – | + (+ = 0.5 to 1.5 relative activity over Rd3BB (SEQ ID NO: 13)) | + (+ = 0.5 to 1.5 relative activity over Rd3BB (SEQ ID NO: 13)) | + (+ = 0.5 to 1.5 relative activity over Rd3BB (SEQ ID NO: 13)) | + (+ = 0.5 to 1.5 relative activity over Rd3BB (SEQ ID NO: 13))
